This note sets out measurements from publication PMC11117807, “Comparative Study of Field-Effect Transistors Based on Graphene Oxide and CVD Graphene in Highly Sensitive NT-proBNP Aptasensors”.

The target of data set [1] is NT-proBNP (UniProt P16860 27-102). Kind of data set: aptamer-functionalised rGO-FET; 0.01x PBS with Tween; response 10 fg/mL to 100 pg/mL; LOD 100 fg/mL in artificial saliva; 0.01x PBS with Tween (1x PBS: 2.7 mM KCl, 137 mM NaCl, 10 mM phosphate, pH 7.4); LOD in artificial saliva; surface blocked with ethanolamine and BSA; temperature not stated. As to conditions: protein: commercial.

Data set [2] concerns the target proBNP (UniProt P16860 27-134). The data set is described as follows: aptamer-functionalised CVD graphene FET (GFET); after long-term storage; unexpected concentration-dependent response; 0.01x PBS with Tween (1x PBS: 2.7 mM KCl, 137 mM NaCl, 10 mM phosphate, pH 7.4); LOD in artificial saliva; surface blocked with ethanolamine and BSA; temperature not stated. As to conditions: protein: commercial.

proBNP, sequence (P16860 27-134): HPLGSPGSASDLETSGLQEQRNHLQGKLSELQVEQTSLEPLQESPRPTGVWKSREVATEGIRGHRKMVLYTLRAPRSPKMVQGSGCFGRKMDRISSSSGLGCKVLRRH
NT-proBNP, sequence (P16860 27-102): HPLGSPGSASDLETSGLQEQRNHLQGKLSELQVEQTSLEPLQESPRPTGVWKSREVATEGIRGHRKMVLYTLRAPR

B1: N20a aptamer (ssDNA)
DNA: GGCAGGAAGACAAACAGGTCGTAGTGGAAACTGTCCACCGTAGACCGGTTATCTAGTGGTCTGTGGTGCTGT
modifications: 5'-NH2
On to B1, for which the binding result in data set [1] and in data set [2] was “binds” each time.
